In a protein production outcome set (Wang et al. 2014) one finds protein production data, which are given here for 16 sequences.

A short description of this series: label from the status in PepcDB records.

With “MFKSVQQRTIQNGQVIPFYHSTNELAHIQNILQSQTPLVSLKEINKFRQLIARASVGEYFLIQSGDCAENFYECDKDTTHAKLDFIRHLATFFHQKTGCSVIQVGRIARQYAKPRSNQYEICQNKRIYSYFGGMINQSQETQRRPNPWRILLSYNCSASIYRKINQWNRGINPEQKIYTSQEAFLFNYEQSLTRWDERTGLYYNLSTHFPWLGKRTVSSLQHINHLKKIANPIAVKIGPDTPIKNLVKVINELDPSYIPGRITLIPELGAQNVYHILPQLIDAVKRTDRTVLWSCDPMHGNTETLSSGIKIRKLSNIVEEIKNSFFIHRKMGSQLNAIHLEATHQNVTECMDYKSSHCESISDLKKNYKNLLDPRLNYAQTLHVIQCVAKYYANS”, the protein production entry was “failed”. Next, “MFLAGAFIAVGSLYAQSSDAEWQAGVAKLKETIQTNPAQANEEAEQLIKGKNKKNVELLVAIGEVYLKAGKLPEAQEYAALAKKVNGKSALASVLEGDIAFEQKNAGLASQKYEEAIYFDPSCTEAYLRYADIYKSANAALAIEKLEQLKAQEPSNTAVDKKLAEIYYLKNDFSKAAEAYSRFAMGPTATEEDLVKYAFALFLNHDFEKSLEVANMGLKKNARHAAFNRLAMYNYTDLKRFDEAIKAADAFFTESDKADYSYLDYMYYGHLLEALKKYDEAVGQYEKAIQLDPTKTDLYKNISSAYEQKNDYKKAISAYQKYYTSLDKEHQTPDLQFQFGRLYYGAGTQTDSLTINAEERKQALMAADSVFHSIAEAAPDSYLGNFWRARANSALDPETTLGLAKPFYEEVATLLESKNDPHYNSALIECYSYLGYYYLLAIENPALKAEAMANKEKSKEYWSKILAIDSTNATAKRALDGIK”: “failed”; “MFLFLTCKIGNRMVKLRTFINISEDLFVIRNLIGAILQGIGLAYLVPVLLAWFYPEEIPLVIYFAIPGFSCIILGWVLSKHMEKIEDVNLRQAMMASAFIWLFASLVSVIPFMGIAKMRFVDSYFETMSAWTGTGLTMMSNLESYPKILLFWRAWMQWLGGIGIVLVALTVLIRPGVAAARLYKAEARSERILPNFVNTAKIIVQIYAVLTLLGIYLYYSNGMSLFDATIHSMTGLGTGGMSSHDLSIGYFNSLAIETVTVFLMIMGATNFTVHYRMFKNRSLKEFFRDIQVRYMLYFITLIVALMTYSLVFFGHLTPIRALRESIFHAVSAITCTGFGISNLAEYPEIDKILLAILMVIGGSAGSTSGGIKLIRIVLMYQSLKWTIEQAILPKGAVIRKRVNGYEFTEEEIQEVLGFTMTYIAFLLLGTLYIMLRLGVRFADALFEVASAIGNVGLSVGITSPLLPLDIKILLTILMWVGRLEIFSTIVFIVGLAMIFSRRSKE”: “failed”; “MFLFSLTLGVYCSSWTFYGATGAAVREGVIFLPIYLGPLLFVWFGYDIWRRLGRVRQHHAISSIADFVAARYGKSGVLASLVTILAVIAIIPYLALQLRAIALSTSVIMEQSSHIHTTTNSVLLLTSVLAILAMIFGTRQIANTEQHGGLMLAVAFESFVKLFALLCVALFFIFESPANLSQMTSDVNQTFQEVQLFGVPETFWIQTLLAGLAIICLPRQFHVAVVELRDEKHIRGARKWFAVYLILTILAIIPIASWALHAAPKFLTVPDVAVLSLPLSYNQEWLALLAFLGGFSASTGMLLVSSVALSIMLSNDLIMPALWRFKLLSRHDKHLPKVLKFSRRISIVAVMLLGFLFFHFFNDINQLSVFGLLAFSAVAQFAPALIGGLYWRGGSRQGVYAGLIIGFLMWSYTLLFPTILRSLPEAYQETAQSILLFGPFGINALRPESLFGFESFAPLTHGVIWSLGLNIVLYIWISKIYRPSVAEQIQAESFFYYETKPLPSPHTSTDLTYLPHDAARLKVGDLFALAKRITGEQPTTQAFENFCEQNHLTLNPNSIANGMWWRFTEQYLAGIIGAASARTLLTTAMINNGLALGQVANILDQASQWQRFNQNLLMTMIDHMTQGVSVVDKNMCLVAWNNQYLKLFGYPKDLVYVGCPIADLIRYNAERGECGPGSVEEHVRKRLHWMKVGSAHEFERIRKDGRVIQMRGNPIAGGGFVTTFADITAFRANEAVLEARVKDRTQQLADALTEQQLAREQADMANMSKSRFIAAASHDLLQPMHAARLFSTVLEQSISTEEDRQTLQQLDRALYGAESMLSALLDIARLEGGTIQPKRQPYPLHDLLSDLELQFKSIAAQRNISLKVHDVSFWIDTDPQWIRRIIQNFVSNALRYTAKGRVVVGVLRSAQQSGHIRIGVWDTGPGIAEEQRIKLFQEFERCGHLSPWGEQGLGLGLAIVQRMTGLLNYPVHVYSELGKGSCFMIEVPIVEPPKVATPAVQAVPLKTKAYRILCLDNDETILEGMSSLLGRWGYQVFKATEPEQALEIIQKENIQVWLIDQHLNHNQLGVDFITQNRQEDVPVALITADSHPELPQQLKELNIVLLKKPLKPASLRAWLSGLKIASTTD”: “failed”. With “MFLLEPKQSSNPMQPQETAARYDTIAQWWQTQHQDSQYGLRQLERAIQFVDPTHQPKLALEVGCGSSGRFIECLSNRGFQVEGLDISTAMIDLAQQLHPEVTFYRADICEWIPSKSYSLIVAWDSTFHLPLDQQAPVHRKLCAALEDQGILMFTCGGGDQAGEIAGVFQGQDFEYSTLGIDAFLKLLSDCHCTCLHLEYDQYPERHVYVIAKKVGAAIH”, the protein production result is “failed”. Next, “MFMAKRYENMDNVSTKKSIRSFLRWRKERKQNKKDFSFLVEQSPVKQSAFLQSNVEKTTITWIGHSTFLIQTNGLNILTDPVWANKLKLVPRLTEPGLSIEALPKIDIVLISHGHYDHLDFSTLRQLNDDVLYLVPIGLKKLFTRKKFKHVEEYKWWESTIINEVSFHFVPSQHWTRRFLFDMNTSHWGGWIIDNETTMETIYFCGDSGYFQGFKEIGERFLIDIALMPIGAYEPEWFMKVSHVSPEEAVQAYLDLNATHFIPMHYGAFALADETPREAITRLRNNWNLRMLPWEQLHVLFLGQTFIYSNATNNKQIKEKIETLHV”: “failed”; “MFMEVSLTSLPAHVMNALDAIWEGSIADSLESETLEFKEDPSCAGRGKQHGNPQAALIEKLIDEAVCLANGDAGTGHIVVGIKDKIGGPEAFTGTTFDTEKIAKKIFDGTRPNLRPEVHEVRYQNNRLIVIYIPEALSLYSRSKGQTSKRVGSHCEPLSEEQRRAIAATRAHADYSNGISEFNVDDIAADTIQEVRRLLKTKRAQSGIDTSLPTTTNGLLRELGLIDNYGALKRAGAILLLPAPEGQLSIRHFWRSFPGIDPEVTDYNQPLLIALSSLKRRITENANKEIKRIQFSDGQEIAVSAFPQTAVDEVVTNAIIHRDWRLSRPVVIDQSPQTLKVWSPGSLPVGVTPNRLLTTQSIPRNSRLMSAMRMLGLAEESSRGFDRIWAALLGSGRDIPDVHTEDTFVEVILHSGNPDESFIKALHELSLSFNPDMLHSVNTLIVLWHLWTSPVISLKQARVKTQTSSKEATELMFALESNGLLTQIHNTDEWFLSEKARKTTNYYQSETIPQSSVQTWVEEKLSSGSPISAAEIAESIGMPRPEITEILRNLRRAGKAHIDPSGPQRGSGTRWIKGT”: “failed”; “MFNAGNRIINTWLYPIQDGFVLIDTGYENGFKHFKKRISKFNIKIKDIRYIFLTHAHDDHVGFLNQILDESPNTKIVMHDKALEILYKGQNSFIGGCTSRTAFLFCQIMKLFGKGEHSFSPLKQEFEKRCILVSDKNRKEIEKELNGKIIDTPGHTDDSISLLIDDGVLFCGDSAMNGFPSTHKITIFAESKLEFIQSWKTIINTKPKMIYPGHGKPFEYSKLEQNLIYVNKINLYPLHNSKDIHRFL”: “failed”. The result for “MFNESDAPQPPKVLSTPLEIAANLRQLQESHDPLIITFHDRSHRFQSYVVHVDRESNTLALDEMIPRDGEKFIENGEHFRVEGFHDGVRIAWECDHALKISEVDGHRCYSGPLPQEVTYHQRRNAFRAALKLSQLVDIILDGAHLKGNGAMRGKLLDISATGCKLRFEGNVEDRLQLGQVYERFKAGNPLGLVDTMVELRHLHYEERINTTFAGVRFHNLSGQAQRKIESFVYQLQREARRFDKDDY” reads “not failed”. With “MFNFFKNKQTEPAAPPPPKDPTPRIEFFNGISEELSNVSLQRNPKTGVKSVSMTFAQLNALDRFQSFTAGSNGIVRLIDEEGDIAVTPSSCRIVFGGEEGDELRGVICRFEIENDDHWERFMRFMHRYADEHGFAYGESAETSNEPSSLASETDSEA”, the protein production entry is recorded as “failed”.

As to “MFNIKENQTTVKKEILAGITTFFTMVYIVVVNPSILSGTGVPFDQVFTATIIAAVVGTLWMALAANFPIAIAPGMGLNVYFAVSVVGSSNGEISYQTAFSTVFAAGILFIILSLTPLRKQLIEAIPANLKYGITAGIGLFIAFVGLRGAGIITANEANLVGLGNLHSPGVILALIGLAFSVVLMVMNVSGALFFGMILTGLIAFFTGQLEFTKGIMSMPHLPEKLIVTNPFAAFGDVIHYGLYSVVFSFLLVTIFDTTGTMIGVAEQAGLMKNNKLPNARKALLADSTATTVGAMFGTSPTTAYIESSAGVAAGGRTGLTSLTVAVLFGAALFFSPLVSAVSGIAAITSPALIIVGSMMIGAVTNIRWKELDEAFPAFLVILTMPLTSSIATGISLGFIAYPIVKAAKGKWREIHPLVFVFAVLFFIHLFFLEGH”, the protein production result is reported as “failed”. As for “MFPGVFEHLLYQYTSAILSVGFLIFNGLFAVIYNPKKVVGIKGDPDYTFTDITVLIPVYNEVEDIFRKVIKSVSSMGLKFVVVGDGVDQPYRAITEQNGGIFIRLEERRGKRFALSEGMRYIDTRLVLLLDSDTFIDKRSLERMLSYMAEDVGGVSPSIRVWNNGKISYYYANFYEIMSEIVNRATSYFGRTIILSGQCVLYKTSAIRNYVMSNDFTSSKIFNISLKISDDRDLTEYIIERGYKAIKAIDAIAYTKPPENLSQFVKQVVRWTRANYLFFLRSLRDGSLSLRGNLYVFDIIYMNFLPILVIFSLIPLQYPRFDIFNTLSASITSLERLDIFQLILGIPIRAHLPPFDFVLVFILPRVLSIIGGVTFLLVMIKIMEKERGKTLMYGVIALIVQSLASFYSIASMWKQSWSSREKNRKSKK”, the protein production result is given as “failed”. As for “MFPRALAIGTPAQHKATEAPVTSTSASGLARFNTLEETAALAELHEACAATAWARHLLAARPFATAEDLYAASDAAMAELSAEDLAEAMAGHPPIGRPKPGDATSSREQAGMAGAAEELKAEMLELNLAYQDKFGHVFLICATGRTGEQMRDAALERIGNSPEQEREIVRTELGKINRIRLTRLVEQDARPLEHHHHHH”, the protein production result is “not failed”. Next, “MFQENRTNELVILKEIAETLNTSNDTYHVLQAVLEKLLSVTGLTTGWIFLADEDGRYTKLIDYQLPEALTYENKRPMCEGECWCLRGFVDGKLERAVNIIECKRINNAIEYNWGDTEGILHHATVPLKAGGEKFGLLNVASPGKTHFSEEELVLLQSVAFQIGTALKRAKLYENEKRRAH”: “failed”. The result for “MFQPLLDAFIESASIEKMVSKSPPPPLKIAVANWWGDEEIKEFKKSVLYFILSQRYAITLHQNPNESSDLVFSNPLGAARKILSYQNTKRVFYTGENESPNFNLFDYAIGFDELDFNDRYLRMPLYYAHLHYEAELVNDTTAPYKLKDNSLYALKKPSHHFKENHPNLCAVVNDESDLLKRGFASFVASNANAPMRNAFYDALNSIEPVTGGGSVRNTLGYKVGNKSEFLSQYKFNLCFENSQGYGYVTEKILDAYFSHTIPIYWGSPSVAKDFNPKSFVNVHDFNNFDEAIDYIKYLHTHPNAYLDMLYENPLNTLDGKAYFYQDLSFKKILDFFKTILENDTIYHNNPFIFYRDLHEPLISIDDLRVNYDDLRVNYDDLRVNYDDLRVNYDDLRVNYDDLRVNYDDLRVNYDDLRVNYDDLRVNYDDLRVNYDRLLQNASPLLELSQNTTFKIYRKAYQKSLPLLRTIRRWVKK” reads “failed”; that for “MFQTGGLIVFYGLLAQTMAQFGGLPVPLDQTLPLNVNPALPLSPTGLAGSLTNALSNGLLSGGLLGILENLPLLDILKPGGGTSGGLLGGLLGKVTSVIPGLNNIIDIKVTDPQLLELGLVQSPDGHRLYVTIPLGIKLQVNTPLVGASLLRLAVKLDITAEILAVRDKQERIHLVLGDCTHSPGSLQISLLDGLGPLPIQGLLDSLTGILNKVLPELVQGNVCPLVNEVLRGLDITLVHDIVNMLIHGLQFVIKV”, “failed”.
